Results published in US20190010203A1 (ADEPTHERA, published 2019).
Non-standard residues stand in square brackets, D forms with d. No end group written: not given here. *: point of attachment. Palmitoyl = CCCCCCCCCCCCCCCC(=O)*; AEEEA = NCCOCCOCCOCC(=O)O; AEEA = NCCOCCOCC(=O)O

How the values were obtained:
Assay in all cases: cell-based or functional assay
[1] = target: T1, CLR/RAMP3 receptor (UniProt Q16602 23-461; O60896 24-148, limits assumed)
[2] = target: T2, CLR/RAMP2 receptor (UniProt Q16602 23-461; O60895 43-175, limits assumed)
T2 sequence (Q16602 23-461 limits assumed, chain 1 of 2): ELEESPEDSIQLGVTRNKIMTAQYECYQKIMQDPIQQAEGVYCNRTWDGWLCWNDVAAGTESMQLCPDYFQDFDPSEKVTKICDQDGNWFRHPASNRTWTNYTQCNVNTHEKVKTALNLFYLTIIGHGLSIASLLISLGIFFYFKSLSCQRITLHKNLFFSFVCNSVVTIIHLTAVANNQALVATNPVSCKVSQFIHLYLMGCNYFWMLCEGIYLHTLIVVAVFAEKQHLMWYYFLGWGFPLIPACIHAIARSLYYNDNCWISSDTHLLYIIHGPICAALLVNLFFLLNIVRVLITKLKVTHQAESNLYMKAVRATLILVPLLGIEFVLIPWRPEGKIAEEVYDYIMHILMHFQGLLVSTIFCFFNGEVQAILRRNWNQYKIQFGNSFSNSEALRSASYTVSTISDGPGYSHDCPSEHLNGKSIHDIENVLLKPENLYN
T2 sequence (O60895 43-175 limits assumed, chain 2 of 2): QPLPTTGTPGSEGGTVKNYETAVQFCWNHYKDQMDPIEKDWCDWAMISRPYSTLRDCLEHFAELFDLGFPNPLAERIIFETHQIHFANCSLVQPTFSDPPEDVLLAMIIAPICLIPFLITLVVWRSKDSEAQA

[3] = target: T3, CLR/RAMP1 receptor (UniProt Q16602 23-461; O60894 27-148, limits assumed)
T3 sequence (Q16602 23-461 limits assumed, chain 1 of 2): as the sequence (Q16602 23-461 limits assumed, chain 1 of 2) above
T3 sequence (O60894 27-148 limits assumed, chain 2 of 2): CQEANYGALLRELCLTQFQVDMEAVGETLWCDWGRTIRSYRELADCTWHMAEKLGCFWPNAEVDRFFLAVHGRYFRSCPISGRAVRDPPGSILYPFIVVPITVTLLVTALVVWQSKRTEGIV

[4] = target: T2, CLR/RAMP2 receptor; remark: listed apart in the source
[5] = target: T1, CLR/RAMP3 receptor; remark: listed apart in the source
[6] = target: T3, CLR/RAMP1 receptor; remark: listed apart in the source

T1 sequence (Q16602 23-461 limits assumed, chain 1 of 2): as the sequence (Q16602 23-461 limits assumed, chain 1 of 2) above
T1 sequence (O60896 24-148 limits assumed, chain 2 of 2): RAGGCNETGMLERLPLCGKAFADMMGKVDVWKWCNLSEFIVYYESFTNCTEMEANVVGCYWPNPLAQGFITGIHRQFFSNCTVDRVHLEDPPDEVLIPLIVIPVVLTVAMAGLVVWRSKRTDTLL

Binder | IC50 (nM), CGRP-stimulated CLR/RAMP1 cAMP assay [3] [nM] | IC50 (nM), ADM-stimulated CLR/RAMP2 arrestin assay [4] [nM] | IC50 (nM), CLR/RAMP3 cAMP antagonist assay [5] [nM] | further results
KGCRFGTCTVQKLAHQIYQFTDKDKDNVAPRSKISPQGY (N-terminal miniPEG; palmitoyl on Lys 1 side chain, K(PAL); C-terminal amide) [SEQ ID NO: 69] | – | – | – | EC50 (nM), CLR/RAMP3 cAMP assay [1]: 0.6 nM; EC50 (nM), CLR/RAMP2 arrestin assay [2]: 0.6 nM
Ac-TVQKLAHQIYQFTDKDKDNSAPVDPSSPHSY-NH2 [SEQ ID NO: 76] | 1120 | 289 | – | –
Palmitoyl-KVQKLAHQSAPVDPSSPHSY-NH2 [SEQ ID NO: 124] | – | – | – | Max Activity % of positive control, CLR/RAMP3 antagonist assay [5]: 102 % of positive control; Max Activity % of positive control, CGRP-stimulated CLR/RAMP1 antagonist assay [3]: 95 % of positive control; Max Activity % of positive control, ADM-stimulated CLR/RAMP2 antagonist assay [4]: 103 % of positive control
Palmitoyl-KGCRFGTCTVQKLAHQIYQFTDKDVAPRSKISPQGY-NH2 (ends and bridges not checked) [SEQ ID NO: 103] | – | – | – | EC50 (nM), CLR/RAMP3 cAMP assay [1]: 0.3 nM; EC50 (nM), CLR/RAMP1 cAMP assay [6]: 4.5 nM; EC50 (nM), CLR/RAMP2 arrestin assay [2]: 0.7 nM
Palmitoyl-KVQKLAHQIYQFTDKSAPVDPSSPHSY-NH2 [SEQ ID NO: 125] | 7 | 7.1 | – | –
miniPEG-K(Palmitoyl)GCRFGTCTVQKLAHQIYQFTDKDVAPRSKISPQGY-NH2 (ends and bridges not checked) [SEQ ID NO: 101] | – | – | – | EC50 (nM), CLR/RAMP3 cAMP assay [1]: 0.5 nM
[AEEA]K(Palmitoyl)VQKLAHQIYQFTDKDSAPVDPSSPHSY-NH2 [SEQ ID NO: 112] | 1.8 | 5.3 | 2.3 | –
Palmitoyl-KVQKLAHQIYQFTDKDSAPVDPSSPHSY-NH2 [SEQ ID NO: 121] | 3.2 | 4.9 | 1.8 | –
Palmitoyl-TVQKLAHQIYQFTDKDKDNSAPVDPSSPHSY-NH2 [SEQ ID NO: 77] | 9.9 | 47 | – | –
Palmitoyl-KVQKLAHQIYQFTDKDVAPRSKISPQGY-NH2 [SEQ ID NO: 119] | 21 | 0.6 | 1.5 | –
[AEEEA]K(Palmitoyl)VQKLAHQIYQFTDKDKDNSAPVDPSSPHSY-NH2 (N-terminus assumed; SMILES CCCCCCCCCCCCCCCC(=O)NCCCC[C@H](NC(=O)COCCOCCOCCN)C(=O)N[C@H](C(=O)N[C@@H](CCC(N)=O)C(=O)N[C@@H](CCCCN)C(=O)N[C@@H](CC(C)C)C(=O)N[C@@H](C)C(=O)N[C@@H](Cc1c[nH]cn1)C(=O)N[C@@H](CCC(N)=O)C(=O)N[C@H](C(=O)N[C@@H](Cc1ccc(O)cc1)C(=O)N[C@@H](CCC(N)=O)C(=O)N[C@@H](Cc1ccccc1)C(=O)N[C@H](C(=O)N[C@@H](CC(=O)O)C(=O)N[C@@H](CCCCN)C(=O)N[C@@H](CC(=O)O)C(=O)N[C@@H](CCCCN)C(=O)N[C@@H](CC(=O)O)C(=O)N[C@@H](CC(N)=O)C(=O)N[C@@H](CO)C(=O)N[C@@H](C)C(=O)N1CCC[C@H]1C(=O)N[C@H](C(=O)N[C@@H](CC(=O)O)C(=O)N1CCC[C@H]1C(=O)N[C@@H](CO)C(=O)N[C@@H](CO)C(=O)N1CCC[C@H]1C(=O)N[C@@H](Cc1c[nH]cn1)C(=O)N[C@@H](CO)C(=O)N[C@@H](Cc1ccc(O)cc1)C(N)=O)C(C)C)[C@@H](C)O)[C@@H](C)CC)C(C)C) [SEQ ID NO: 78] | 4.8 | 34 | 0.8 | Max Activity % of positive control, CLR/RAMP3 antagonist assay [5]: 101 % of positive control; Max Activity % of positive control, CGRP-stimulated CLR/RAMP1 antagonist assay [3]: 104 % of positive control; Max Activity % of positive control, ADM-stimulated CLR/RAMP2 antagonist assay [4]: 107 % of positive control
Palmitoyl-KVQNLSHRLWQLMGPAGSAPVDPSSPHSY-NH2 [SEQ ID NO: 120] | 5.8 | 85 | 9.2 | –
miniPEG-K(Palmitoyl)GCRFGTCTVQKLAHQIYQFTDKDSAPVDPSSPHSY-NH2 (ends and bridges not checked) [SEQ ID NO: 48] | – | – | – | EC50 (nM), CLR/RAMP3 cAMP assay [1]: 0.07 nM; EC50 (nM), CLR/RAMP1 cAMP assay [6]: 0.3 nM; EC50 (nM), CLR/RAMP2 arrestin assay [2]: 0.2 nM
Palmitoyl-KVQKLAHQISAPVDPSSPHSY-NH2 [SEQ ID NO: 123] | 4.7 | 50 | – | –
Palmitoyl-KGCRFGTCTVQKLAHQIYQFTDKDSAPVDPSSPHSY-NH2 (ends and bridges not checked) [SEQ ID NO: 92] | – | – | – | EC50 (nM), CLR/RAMP3 cAMP assay [1]: 0.2 nM; EC50 (nM), CLR/RAMP1 cAMP assay [6]: 0.4 nM; EC50 (nM), CLR/RAMP2 arrestin assay [2]: 0.3 nM
Ac-VTHRLAGLLSRFTDKDKDNVAPRSKISPQGY-NH2 [SEQ ID NO: 115] | 1880 | 117 | 115 | –
[AEEA]K(Palmitoyl)VQKLAHQIYSAPVDPSSPHSY-NH2 [SEQ ID NO: 114] | 4.8 | 146 | 8.4 | –
Palmitoyl-KVQKLAHQIYSAPVDPSSPHSY-NH2 [SEQ ID NO: 122] | 7.3 | 61 | 4.1 | –
Ac-TVQKLAHRLWQLMGPDKDNVAPRSKISPQGY-NH2 [SEQ ID NO: 116] | 152 | 7.3 | 53 | –
